# Test results: IntAct's records for PubMed 20980406
# B1: Band 3 anion transport protein (Homo sapiens), P02730 (parent)
# chain: MEELQDDYEDMMEENLEQEEYEDPDIPESQMEEPAAHDTEATATDYHTTSHPGTHKVYVELQELVMDEKNQELRWMEAARWVQLEENLGENGAWGRPHLSHLTFWSLLELRRVFTKGTVLLDLQETSLAGVANQLLDRFIFEDQIRPQDREELLRALLLKHSHAGELEALGGVKPAVLTRSGDPSQPLLPQHSSLETQLFCEQGDGGTEGHSPSGILEKIPPDSEATLVLVGRADFLEQPVLGFVRLQEAAELEAVELPVPIRFLFVLLGPEAPHIDYTQLGRAAATLMSERVFRIDAYMAQSRGELLHSLEGFLDCSLVLPPTDAPSEQALLSLVPVQRELLRRRYQSSPAKPDSSFYKGLDLNGGPDDPLQQTGQLFGGLVRDIRRRYPYYLSDITDAFSPQVLAAVIFIYFAALSPAITFGGLLGEKTRNQMGVSELLISTAVQGILFALLGAQPLLVVGFSGPLLVFEEAFFSFCETNGLEYIVGRVWIGFWLILLVVLVVAFEGSFLVRFISRYTQEIFSFLISLIFIYETFSKLIKIFQDHPLQKTYNYNVLMVPKPQGPLPNTALLSLVLMAGTFFFAMMLRKFKNSSYFPGKLRRVIGDFGVPISILIMVLVDFFIQDTYTQKLSVPDGFKVSNSSARGWVIHPLGLRSEFPIWMMFASALPALLVFILIFLESQITTLIVSKPERKMVKGSGFHLDLLLVVGMGGVAALFGMPWLSATTVRSVTHANALTVMGKASTPGAAAQIQEVKEQRISGLLVAVLVGLSILMEPILSRIPLAVLFGIFLYMGVTSLSGIQLFDRILLLFKPPKYHPDVPYVKRVKTWRMHLFTGIQIICLAVLWVVKSTPASLALPFVLILTVPLRRVLLPLIFRNVELQCLDADDAKATFDEEEGRDEYDEVAMPV
# Variants of: B1
# Conditions: with g3p_rabit GAPDH
row,Variant,effect of a mutation on the interaction
1,D902A;E903A,decreasing interaction strength
2,Y904A,decreasing interaction strength
3,D905A;E906A,with no effect
